Biological target: T1, c-Met (mouse, UniProt P16056 25-1379)
T1 construct: whole, on cells; also called HGFR; HGF receptor
Assay: confocal microscopy of cells stained with anti-IL-7R-alpha and anti-c-Met; co-localisation on scIL-7/HGF-beta-stimulated cells and on pre-pro-B cells of normal BM
Excerpt: Consistent with these blocking experiments, approximately 60% of the scIL-7/HGF-beta culture-generated CLPs and pre-pro-B cells expressed both c-Met and the IL-7R, whereas more than 80% at the rIL-7 culture-generated pro-B cells expressed the IL-7R only (data not shown). […] However, as noted previously for native IL-7/HGF-beta, scIL-7/HGF-beta was able to “prime” pre-pro-B/pro-B cells to respond to rIL-7 (FIG. 32D), presumably by up-regulating the IL-7R-alpha chain. […] Direct evidence that both the IL-7R (alpha and gamma-c chains) and c-Met are major components of the receptor complex for IL-7/HGF-beta was provided on Western blots after purification of receptor proteins from culture-generated CLPs/pre-pro-B cells on a scIL-7/HGF-beta affinity gel (FIG. 34).

binding result: binds
B1: IL-7R (alpha and gamma-c chains) (receptor, mouse)
chain 1: ESGNAQDGDLEDADADDHSFWCHSQLEVDGSQHLLTCAFNDSDINTANLEFQICGALLRVKCLTLNKLQDIYFIKTSEFLLIGSSNICVKLGQKNLTCKNMAINTIVKAEAPSDLKVVYRKEANDFLVTFNAPHLKKKYLKKVKHDVAYRPARGESNWTHVSLFHTRTTIPQRKLRPKAMYEIKVRSIPHNDYFKGFWSEWSPSSTFETPEPKNQGGWDPVLPSVTILSLFSVFLLVILAHVLWKKRIKPVVWPSLPDHKKTLEQLCKKPKTSLNVSFNPESFLDCQIHEVKGVEARDEVESFLPNDLPAQPEELETQGHRAAVHSANRSPETSVSPPETVRRESPLRCLARNLSTCNAPPLLSSRSPDYRDGDRNRPPVYQDLLPNSGNTNVPVPVPQPLPFQSGILIPVSQRQPISTSSVLNQEEAYVTMSSFYQNK
chain 2: WSSKVLMSSANEDIKADLILTSTAPEHLSAPTLPLPEVQCFVFNIEYMNCTWNSSSEPQATNLTLHYRYKVSDNNTFQECSHYLFSKEITSGCQIQKEDIQLYQTFVVQLQDPQKPQRRAVQKLNLQNLVIPRAPENLTLSNLSESQLELRWKSRHIKERCLQYLVQYRSNRDRSWTELIVNHEPRFSLPSVDELKRYTFRVRSRYNPICGSSQQWSKWSQPVHWGSHTVEENPSLFALEAVLIPVGTMGLIITLIFVYCWLERMPPIPPIKNLEDLVTEYQGNFSAWSGVSKGLTESLQPDYSERFCHVSEIPPKGGALGEGPGGSPCSLHSPYWPPPCYSLKPEA
notes: whole, on cells; also called IL-7 receptor
